According to patent US20210070882A1 (Hoffmann-La Roche, published 2021):
“And” between values parts separate entries of the source, which are not always exact repeats. Equal entries are not always repeated. Where two headings read alike, the source gives them in different places.

How the values were obtained:
human CD19 [1] = biological target: T1, human CD19 (human, UniProt P15391 20-556); experiment: cell-based or functional assay
T1 sequence (looked up): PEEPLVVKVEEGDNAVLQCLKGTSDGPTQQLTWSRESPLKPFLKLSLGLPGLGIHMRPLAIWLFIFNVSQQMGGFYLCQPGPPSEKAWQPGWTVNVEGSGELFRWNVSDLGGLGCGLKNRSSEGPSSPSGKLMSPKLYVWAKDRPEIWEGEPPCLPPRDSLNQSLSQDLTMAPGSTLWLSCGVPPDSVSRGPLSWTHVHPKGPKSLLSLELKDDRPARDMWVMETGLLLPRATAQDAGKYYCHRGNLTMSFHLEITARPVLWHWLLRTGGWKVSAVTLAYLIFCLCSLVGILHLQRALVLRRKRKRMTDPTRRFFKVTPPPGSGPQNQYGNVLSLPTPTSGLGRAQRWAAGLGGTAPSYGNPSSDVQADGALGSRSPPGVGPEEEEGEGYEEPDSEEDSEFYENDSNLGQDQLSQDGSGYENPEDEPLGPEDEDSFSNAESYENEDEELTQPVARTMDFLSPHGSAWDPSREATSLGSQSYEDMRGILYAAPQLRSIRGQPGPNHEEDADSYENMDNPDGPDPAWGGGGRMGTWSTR

human CD19 [2] = biological target: T1, human CD19; experiment: cell-based or functional assay; remark: listed apart in the source
human CD19 [3] = biological target: T1, human CD19; experiment: cell-based or functional assay; remark: listed apart in the source
human CD19 [4] = biological target: T1, human CD19; experiment: cell-based or functional assay; remark: listed apart in the source
human CD19 [5] = biological target: T1, human CD19; experiment: flow cytometry on CD19-expressing Raji cells
Description: (§1) The binding of CD19 IgGs and CD19 TCBs to human CD19- and CD3-expressing target cells was tested using CD19-expressing Burkitt's lymphoma cells (Raji) and CD3-expressing immortalized T lymphocyte line (Jurkat). Briefly, cells were harvested, counted, checked for viability and resuspended at 2×10⁶ cells/ml in FACS buffer (100 μl PBS 0.1% BSA). 100 μl of cell suspension (containing 0.2×10⁶ cells) were incubated in round-bottom 96-well plate for 30 min at 4° C. with increasing concentrations of the CD19 IgGs and CD19 TCBs (10 pM-200 nM), washed twice with cold PBS 0.1% BSA, re-incubated for further 30 min at 4° C. with the PE-conjugated AffiniPure F(ab′)2 Fragment goat anti-human IgG Fcg Fragment Specific secondary antibody (Jackson Immuno Research Lab PE #109-116-170), washed twice with cold PBS 0.1% BSA and immediately analyzed by FACS using a FACS Cantoll (Software FACS Diva) by gating live, DAPI-negative, cells.

human CD19 [6] = biological target: T1, human CD19; experiment: cell-based or functional assay; remark: listed apart in the source
human CD19 [7] = biological target: T1, human CD19; experiment: cell-based or functional assay; remark: listed apart in the source
human CD19 [8] = biological target: T1, human CD19; experiment: cell-based or functional assay; remark: listed apart in the source
human CD19 [9] = biological target: T1, human CD19; experiment: cell-based or functional assay; remark: listed apart in the source
human CD19 [10] = biological target: T1, human CD19; experiment: flow cytometry on Nalm-6 cells and normal human B cells
Description: The binding of different CD19 TCB antibody formats (based on 8B8 clone) was assessed on human CD19-expressing target cells (Nalm-6 and normal human B cells) and human CD3-expressing target cells (CD4, CD8 T cells and Jurkat cells). The following CD19 TCB antibody formats were tested: molecule B as shown in FIG. 2B (named in this example “CD19 TCB_2+1_no charges_inverted”) and molecule A as shown in FIG. 2A (named in this example “CD19 TCB_2+1_charges CD19_inverted”). […] Briefly, cells were harvested, counted, checked for viability and resuspended at 1.5×10⁶ cells/ml in FACS buffer (100 μl PBS 0.1% BSA).

human CD19 [11] = biological target: T1, human CD19; experiment: flow cytometry on CD19-expressing Raji cells; remark: listed apart in the source
Description: as §1

B1: Molecule B: 2+1 IgG CrossFab, inverted, without charge modifications (CH1/CL exchange in CD3 binder, parental murine CD19 binder 8B8) (bispecific antibody)
chain 1: EVQLQQSGPELVKPGASVKMACKASGYTFTDYIMHWVKQKTGQGLEWIGYINPYNDGSKYTEKFNGKATLTSDKSSITAYMELSSLTSEDSAVYYCARGTYYYGSALFDYWGQGTTLTVSSASTKGPSVFPLAPSSKSTSGGTAALGCLVKDYFPEPVTVSWNSGALTSGVHTFPAVLQSSGLYSLSSVVTVPSSSLGTQTYICNVNHKPSNTKVDKKVEPKSCDKTHTCPPCPAPEAAGGPSVFLFPPKPKDTLMISRTPEVTCVVVDVSHEDPEVKFNWYVDGVEVHNAKTKPREEQYNSTYRVVSVLTVLHQDWLNGKEYKCKVSNKALGAPIEKTISKAKGQPREPQVCTLPPSRDELTKNQVSLSCAVKGFYPSDIAVEWESNGQPENNYKTTPPVLDSDGSFFLVSKLTVDKSRWQQGNVFSCSVMHEALHNHYTQKSLSLSP
chain 2: not shown
chain 3: QAVVTQEPSLTVSPGGTVTLTCGSSTGAVTTSNYANWVQEKPGQAFRGLIGGTNKRAPGTPARFSGSLLGGKAALTLSGAQPEDEAEYYCALWYSNLWVFGGGTKLTVLSSASTKGPSVFPLAPSSKSTSGGTAALGCLVKDYFPEPVTVSWNSGALTSGVHTFPAVLQSSGLYSLSSVVTVPSSSLGTQTYICNVNHKPSNTKVDKKVEPKSC
chain 4: DAVMTQTPLSLPVSLGDQASISCRSSQSLENSNGNTYLNWYLQKPGQSPQLLIYRVSKRFSGVLDRFSGSGSGTDFTLKISRVEAEDLGVYFCLQLTHVPYTFGGGTKLEIKRTVAAPSVFIFPPSDEQLKSGTASVVCLLNNFYPREAKVQWKVDNALQSGNSQESVTEQDSKDSTYSLSSTLTLSKADYEKHKVYACEVTHQGLSSPVTKSFNRGEC
notes: also called CD19 TCB_8B8; CD19 TCB_8 B8
T cell activation EC50 upon lysis of Z-138 cells, CD25/CD4 (human CD19 [1]): 2.77 pM | T cell activation EC50 upon lysis of Z-138 cells, CD25/CD8 (human CD19 [1]): 1.7 pM | T cell activation EC50 upon lysis of Z-138 cells, CD69/CD4 (human CD19 [1]): ~0.81 pM | T cell activation EC50 upon lysis of Z-138 cells, CD69/CD8 (human CD19 [1]): 0.82 pM | T cell activation EC50 upon lysis of Z-138 cells, CD107/CD4 (human CD19 [1]): 1.37 pM | T cell activation EC50 upon lysis of Z-138 cells, CD107/CD8 (human CD19 [1]): 1.22 pM | Tumor lysis EC50 (pM), Nalm-6 (human CD19 [2]): 1.7 pM | Tumor lysis EC50 (pM), SUDHL-4 (human CD19 [2]): 0.8 pM | Tumor cell lysis Z-138 cells (21 h), EC50 (human CD19 [3]): 0.8 ng/mL | Tumor cell lysis Z-138 cells (21 h), EC50 (pM) (human CD19 [3]): 4.1 pM | Tumor cell lysis Z-138 cells (21 h), EC50 (human CD19 [4]): 0.62 ng/mL | Tumor cell lysis Z-138 cells (21 h), EC50 (pM) (human CD19 [4]): 3.2 pM | EC50 (human CD19 [5]): 4.1 nM and 0.795 µg/mL | T cell activation EC50, CD25/CD4, Nalm-6 (human CD19 [6]): 3.3 pM | T cell activation EC50, CD25/CD4, SUDHL-4 (human CD19 [6]): 3.9 pM | T cell activation EC50, CD25/CD8, Nalm-6 (human CD19 [6]): 0.7 pM | T cell activation EC50, CD25/CD8, SUDHL-4 (human CD19 [6]): 2.1 pM | T cell activation EC50, CD69/CD4, Nalm-6 (human CD19 [6]): 0.9 pM | T cell activation EC50, CD69/CD4, SUDHL-4 (human CD19 [6]): 2 pM | T cell activation EC50, CD69/CD8, Nalm-6 (human CD19 [6]): 0.8 pM | T cell activation EC50, CD69/CD8, SUDHL-4 (human CD19 [6]): 2.7 pM | T cell activation EC50 upon lysis of Z-138 cells, CD25/CD4 (human CD19 [7]): 3.22 pM | T cell activation EC50 upon lysis of Z-138 cells, CD25/CD8 (human CD19 [7]): 1.86 pM | T cell activation EC50 upon lysis of Z-138 cells, CD69/CD4 (human CD19 [7]): 1.01 pM | T cell activation EC50 upon lysis of Z-138 cells, CD69/CD8 (human CD19 [7]): 0.83 pM | T cell activation EC50 upon lysis of Z-138 cells, CD107/CD4 (human CD19 [7]): 1.68 pM | T cell activation EC50 upon lysis of Z-138 cells, CD107/CD8 (human CD19 [7]): 1.32 pM | T cell activation EC50 upon Z-138 lysis, CD25/CD4 (human CD19 [8]): 2.4 pM | T cell activation EC50 upon Z-138 lysis, CD25/CD8 (human CD19 [8]): 2.4 pM | T cell activation EC50 upon Z-138 lysis, CD69/CD4 (human CD19 [8]): 1.8 pM | T cell activation EC50 upon Z-138 lysis, CD69/CD8 (human CD19 [8]): 2.7 pM | Tumor cell lysis Z-138 cells (21 h), EC50 (human CD19 [9]): 0.62 ng/mL | Tumor cell lysis Z-138 cells (21 h), EC50 (pM) (human CD19 [9]): 3.16 pM

B2: DP47 TCB (untargeted TCB having an identical structure as molecule B but with the DP47 binder instead of a CD19 binder) (bispecific antibody)
heavy 1: not shown
heavy 2: not shown
light 1: QAVVTQEPSLTVSPGGTVTLTCGSSTGAVTTSNYANWVQEKPGQAFRGLIGGTNKRAPGTPARFSGSLLGGKAALTLSGAQPEDEAEYYCALWYSNLWVFGGGTKLTVLSSASTKGPSVFPLAPSSKSTSGGTAALGCLVKDYFPEPVTVSWNSGALTSGVHTFPAVLQSSGLYSLSSVVTVPSSSLGTQTYICNVNHKPSNTKVDKKVEPKSC
light 2: not shown
notes: Negative control; also called untargeted TCB control; copies: 1 + 1 + 1 + 2
binding result (human CD19 [10]): no binding

B3: Molecule D: 2+1 IgG CrossFab, inverted, without charge modifications (CH1/CL exchange in CD3 binder, murine CD19 binder 10C1) (bispecific antibody)
chain 1: QAVVTQEPSLTVSPGGTVTLTCGSSTGAVTTSNYANWVQEKPGQAFRGLIGGTNKRAPGTPARFSGSLLGGKAALTLSGAQPEDEAEYYCALWYSNLWVFGGGTKLTVLSSASTKGPSVFPLAPSSKSTSGGTAALGCLVKDYFPEPVTVSWNSGALTSGVHTFPAVLQSSGLYSLSSVVTVPSSSLGTQTYICNVNHKPSNTKVDKKVEPKSC
chain 2: EVQLQQSGPELVKPGASVKMSCKASGYTFTSYVMHWVKQKPGQGLEWIGYINPYNDGTKFNEKFKGKATLTSDKSSSTAYMELSSLTSEDSAVYYCTRGVYYYGSSQGDYWGQGTTLTVSSASTKGPSVFPLAPSSKSTSGGTAALGCLVKDYFPEPVTVSWNSGALTSGVHTFPAVLQSSGLYSLSSVVTVPSSSLGTQTYICNVNHKPSNTKVDKKVEPKSCDKTHTCPPCPAPEAAGGPSVFLFPPKPKDTLMISRTPEVTCVVVDVSHEDPEVKFNWYVDGVEVHNAKTKPREEQYNSTYRVVSVLTVLHQDWLNGKEYKCKVSNKALGAPIEKTISKAKGQPREPQVCTLPPSRDELTKNQVSLSCAVKGFYPSDIAVEWESNGQPENNYKTTPPVLDSDGSFFLVSKLTVDKSRWQQGNVFSCSVMHEALHNHYTQKSLSLSP
chain 3: not shown
chain 4: DAVMTQTPLSLPVSLGDQASISCRSSQSLENSNGNTYLNWYLQKPGQSPQLLIYRISNRFSGVPDRFNGSGSGTDFTLKISRVEAEDLGVYFCLQVTHVPWTFGGGTKLEIKRTVAAPSVFIFPPSDEQLKSGTASVVCLLNNFYPREAKVQWKVDNALQSGNSQESVTEQDSKDSTYSLSSTLTLSKADYEKHKVYACEVTHQGLSSPVTKSFNRGEC
notes: Same chain layout as molecule B (CD19 VL-CL light chain twice); also called CD19 TCB_10C1; CD19 TCB_10 C1
Tumor lysis EC50 (pM), Nalm-6 (human CD19 [2]): 2.1 pM | Tumor lysis EC50 (pM), SUDHL-4 (human CD19 [2]): 3.4 pM | Tumor cell lysis Z-138 cells (21 h), EC50 (human CD19 [3]): 2.2 ng/mL | Tumor cell lysis Z-138 cells (21 h), EC50 (pM) (human CD19 [3]): 11.1 pM | EC50 (human CD19 [5]): 7.7 nM and 1.49 µg/mL | T cell activation EC50, CD25/CD4, Nalm-6 (human CD19 [6]): 11.8 pM | T cell activation EC50, CD25/CD4, SUDHL-4 (human CD19 [6]): 9.7 pM | T cell activation EC50, CD25/CD8, Nalm-6 (human CD19 [6]): 3 pM | T cell activation EC50, CD25/CD8, SUDHL-4 (human CD19 [6]): 7.2 pM | T cell activation EC50, CD69/CD4, Nalm-6 (human CD19 [6]): 5.6 pM | T cell activation EC50, CD69/CD4, SUDHL-4 (human CD19 [6]): 5.2 pM | T cell activation EC50, CD69/CD8, Nalm-6 (human CD19 [6]): 3.8 pM | T cell activation EC50, CD69/CD8, SUDHL-4 (human CD19 [6]): 10.5 pM | EC50 (human CD19 [11]): 3000 to 8000 pM | T cell activation EC50 upon Z-138 lysis, CD25/CD4 (human CD19 [8]): 6.7 pM | T cell activation EC50 upon Z-138 lysis, CD25/CD8 (human CD19 [8]): 5.9 pM | T cell activation EC50 upon Z-138 lysis, CD69/CD4 (human CD19 [8]): 4.5 pM | T cell activation EC50 upon Z-138 lysis, CD69/CD8 (human CD19 [8]): 5.7 pM
